What was measured:
[1] = target: T1, (GA)15: H-CHHHHHH(GA)15-OH; assay: indirect ELISA, uncoupled peptide coated, antibody titrated [also D00011 FIG. 2L]
T1 construct: synthetic, not coupled to BSA; also called poly-GA DPR protein peptide
T1 peptide: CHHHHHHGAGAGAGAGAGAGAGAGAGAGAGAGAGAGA
Protocol: (§1) In brief, dipeptide repeat proteins were synthesized and purified by Schafer-N(Copenhagen, Denmark): (GA)₁₅: H-CHHHHHH(GA)₁₅-OH; (GP)₁₅: H-C(GP)₁₅-OH; (GR)₁₅: H-C(GR)₁₅-OH; (PA)₁₅: H-C(PA)₁₅-OH; (PR)₁₅: H—C(PR)₁₅-OH. 96-well microplates (Corning Incorporated, Corning, USA) were coated with dipeptide repeat protein peptides at a concentration of either 5 μg/ml or 20 μg/ml in coating buffer (15 mM Na₂CO₃, 35 mM NaHCO₃, pH 9.42). Non-specific binding sites were blocked for 1 h at room temperature with PBS/0.1% Tween®-20 containing 2% BSA (Sigma-Aldrich, Buchs, Switzerland). Primary antibodies were diluted to the indicated concentrations and incubated for 1 h at room temperature, followed by incubation with a donkey anti-human IgG Fcγ-specific antibody conjugated with HRP (Jackson ImmunoResearch Laboratories, Inc., West Grove, USA). Binding was determined by measurement of HRP activity in a standard colorimetric assay. EC₅₀ values were estimated by non-linear regression using GraphPad Prism software (San Diego, USA). The binding specificity and EC₅₀ of human-derived antibodies for C9orf72 dipeptide repeat protein peptides (GA)₁₅, (GP)₁₅, (GR)₁₅, (PA)₁₅ and (PR)₁₅ were determined by indirect ELISA.

[2] = target: T2, BSA-coupled (GR)15 DPR protein peptide (bovine, UniProt P02769 25-607, conjugated via a bifunctional linker (SMCC) to bovine serum albumin); assay: Western blot of BSA-coupled peptides
T2 construct: also called BSA-(GR)15
T2 sequence (P02769 25-607 limits assumed): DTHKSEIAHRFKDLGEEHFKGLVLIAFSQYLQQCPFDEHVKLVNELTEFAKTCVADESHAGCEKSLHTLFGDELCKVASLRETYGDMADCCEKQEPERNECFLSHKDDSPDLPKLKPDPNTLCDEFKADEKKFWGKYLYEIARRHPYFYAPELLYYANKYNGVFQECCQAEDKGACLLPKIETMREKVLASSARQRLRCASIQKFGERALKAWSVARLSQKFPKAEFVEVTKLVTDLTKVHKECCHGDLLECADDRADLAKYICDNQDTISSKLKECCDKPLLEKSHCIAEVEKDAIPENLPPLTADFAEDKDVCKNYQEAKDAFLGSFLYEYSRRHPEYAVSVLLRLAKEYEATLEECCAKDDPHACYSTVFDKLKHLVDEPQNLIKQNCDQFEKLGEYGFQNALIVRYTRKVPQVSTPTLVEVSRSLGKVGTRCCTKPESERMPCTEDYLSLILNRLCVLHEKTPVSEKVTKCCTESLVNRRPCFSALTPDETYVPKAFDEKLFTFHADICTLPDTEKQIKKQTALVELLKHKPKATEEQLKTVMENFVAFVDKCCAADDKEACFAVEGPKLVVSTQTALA
Protocol: (§2) Resolved proteins were then electroblotted (Novex® Semi-Dry Blotter, 1 h, 25V) on methanol-activated PVDF membranes (Immobilon®-P Transfer Membrane, Merck & Cie, Schaffhausen, Switzerland) by the use of Novex® NuPAGE® transfer buffer 2× (Life Technologies Europe B.V., Zug, Switzerland). Non-specific binding sites were blocked overnight at 4° C. (or alternatively for 1 h at room temperature) with PBS/0.1% Tween®-20 containing 2% BSA (Sigma-Aldrich, Buchs, Switzerland) (PBST). […] Membranes were washed three times in PBST for 15 min at RT and then incubated with a donkey anti-human IgG Fcγ-specific antibody conjugated with HRP (1:20000 or 1:10000 dilution, Jackson ImmunoResearch Laboratories, Inc., West Grove, USA) for 1 h at room temperature. Antibody binding was determined by membrane development using ECL and ImageQuant 350 detection (GE Healthcare, Otelfingen, Switzerland).
(§3) The binding specificity of the human-derived antibodies to BSA-coupled C9orf72 dipeptide repeat proteins (GA)₁₅, (GP)₁₅, (GR)₁₅, (PA)₁₅ and (PR)₁₅ was determined by Western blot analysis.

[3] = target: T3, BSA-coupled (PA)15 DPR protein peptide (bovine, UniProt P02769 25-607, conjugated via a bifunctional linker (SMCC) to bovine serum albumin); assay: Western blot of BSA-coupled peptides
T3 construct: also called BSA-(PA)15
T3 sequence (P02769 25-607 limits assumed): as above
Protocol: as §2, §3

[4] = target: T4, BSA-coupled (PR)15 DPR protein peptide (bovine, conjugated via a bifunctional linker (SMCC) to bovine serum albumin); assay: Western blot of BSA-coupled peptides
T4 construct: also called BSA-(PR)15
T4 sequence (P02769 25-607 limits assumed): as above
Protocol: as §2, §3

[5] = target: T5, BSA-coupled (GP)15 DPR protein peptide (bovine, conjugated via a bifunctional linker (SMCC) to bovine serum albumin); assay: indirect ELISA, BSA-coupled peptide coated, antibody titrated [also D00015 FIG. 3L]
T5 construct: also called BSA-(GP)15
T5 sequence (P02769 25-607 limits assumed): as above
Protocol: as §1, with “(PR)₁₅: H—C(PR)₁₅-OH. DPR protein peptides were then conjugated via a bifunctional linker (SMCC) to bovine serum albumin (BSA). 96-well microplates” for “(PR)₁₅: H—C(PR)₁₅-OH. 96-well microplates”, “coated with BSA-coupled or -uncoupled dipeptide repeat” for “coated with dipeptide repeat”, “and incubated 1 h” for “and incubated for 1 h”, “Diego, USA).” for “Diego, USA). The binding specificity and EC₅₀ of human-derived antibodies for C9orf72 dipeptide repeat protein peptides (GA)₁₅, (GP)₁₅, (GR)₁₅, (PA)₁₅ and (PR)₁₅ were determined by indirect ELISA.”

(PA)15: H-C(PA)15-OH = target: T6, (PA)15: H-C(PA)15-OH; assay: indirect ELISA, coated peptide
T6 construct: synthetic, not coupled to BSA; also called poly-PA DPR protein peptide
T6 peptide: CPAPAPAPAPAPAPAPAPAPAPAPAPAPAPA
Protocol: as §1

(GR)15: H-C(GR)15-OH [6] = target: T7, (GR)15: H-C(GR)15-OH; assay: indirect ELISA, coated peptide
T7 construct: synthetic, not coupled to BSA; also called poly-GR DPR protein peptide
T7 peptide: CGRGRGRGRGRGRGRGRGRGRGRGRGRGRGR
Protocol: as §1

(PR)15: H-C(PR)15-OH = target: T8, (PR)15: H-C(PR)15-OH; assay: indirect ELISA, coated peptide
T8 construct: synthetic, not coupled to BSA; also called poly-PR DPR protein peptide
T8 peptide: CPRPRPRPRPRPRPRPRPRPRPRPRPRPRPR
Protocol: as §1

(GP)15: H-C(GP)15-OH [7] = target: T9, (GP)15: H-C(GP)15-OH; assay: indirect ELISA, uncoupled peptide coated, antibody titrated [also D00015 FIG. 3L]
T9 construct: synthetic, not coupled to BSA; also called poly-GP DPR protein peptide
T9 peptide: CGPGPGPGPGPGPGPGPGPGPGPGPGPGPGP
Protocol: as §1, with “(PR)₁₅: H—C(PR)₁₅-OH. DPR protein peptides were then conjugated via a bifunctional linker (SMCC) to bovine serum albumin (BSA). 96-well microplates” for “(PR)₁₅: H—C(PR)₁₅-OH. 96-well microplates”, “coated with BSA-coupled or -uncoupled dipeptide repeat” for “coated with dipeptide repeat”, “and incubated 1 h” for “and incubated for 1 h”, “Diego, USA).” for “Diego, USA). The binding specificity and EC₅₀ of human-derived antibodies for C9orf72 dipeptide repeat protein peptides (GA)₁₅, (GP)₁₅, (GR)₁₅, (PA)₁₅ and (PR)₁₅ were determined by indirect ELISA.”

[8] = target: T5, BSA-coupled (GP)15 DPR protein peptide; assay: Western blot, BSA-coupled peptide
Protocol: as §2, §3

[9] = target: T3, BSA-coupled (PA)15 DPR protein peptide; assay: Western blot, BSA-coupled peptide
Protocol: as §2, §3

(GR)15: H-C(GR)15-OH [10] = target: T7, (GR)15: H-C(GR)15-OH; assay: indirect ELISA, coated uncoupled peptide
Protocol: as §1

(GR)15: H-C(GR)15-OH [11] = target: T7, (GR)15: H-C(GR)15-OH; assay: indirect ELISA, uncoupled peptide coated, antibody titrated [also D00015 FIG. 3J]
Protocol: as §1, with “(PR)₁₅: H—C(PR)₁₅-OH. DPR protein peptides were then conjugated via a bifunctional linker (SMCC) to bovine serum albumin (BSA). 96-well microplates” for “(PR)₁₅: H—C(PR)₁₅-OH. 96-well microplates”, “coated with BSA-coupled or -uncoupled dipeptide repeat” for “coated with dipeptide repeat”, “and incubated 1 h” for “and incubated for 1 h”, “Diego, USA).” for “Diego, USA). The binding specificity and EC₅₀ of human-derived antibodies for C9orf72 dipeptide repeat protein peptides (GA)₁₅, (GP)₁₅, (GR)₁₅, (PA)₁₅ and (PR)₁₅ were determined by indirect ELISA.”

(GP)15: H-C(GP)15-OH [12] = target: T9, (GP)15: H-C(GP)15-OH; assay: indirect ELISA, coated peptide
Protocol: as §1

Tau = Tau (UniProt P10636-8 1-441, limits assumed); assay: indirect ELISA, coated protein
Sequence of Tau (P10636 other isoform, or with tags, fused parts or gaps limits assumed): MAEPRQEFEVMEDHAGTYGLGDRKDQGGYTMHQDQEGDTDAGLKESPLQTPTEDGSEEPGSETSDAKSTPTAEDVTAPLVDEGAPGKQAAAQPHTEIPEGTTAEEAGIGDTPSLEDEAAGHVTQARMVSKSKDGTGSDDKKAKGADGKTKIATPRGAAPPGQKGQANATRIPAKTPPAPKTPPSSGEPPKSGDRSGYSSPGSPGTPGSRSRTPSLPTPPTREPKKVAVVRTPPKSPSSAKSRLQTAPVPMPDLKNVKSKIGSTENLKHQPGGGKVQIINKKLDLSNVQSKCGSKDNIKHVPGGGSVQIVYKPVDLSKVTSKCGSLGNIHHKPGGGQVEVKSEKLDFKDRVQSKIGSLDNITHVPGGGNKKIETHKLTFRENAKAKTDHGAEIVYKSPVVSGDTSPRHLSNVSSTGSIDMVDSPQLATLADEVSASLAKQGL
Protocol: (§4) 96-well microplates (Corning) were coated with different target proteins at a concentration of 1-10 μg/ml in coating buffer (15 mM Na₂CO₃, 35 mM NaHCO₃, pH 9.42). Non-specific binding sites were blocked for 1 h at RT with PBS/0.1% Tween®-20 containing 2% BSA (Sigma-Aldrich, Buchs, Switzerland). […] Binding was determined using donkey anti-human IgG Fcγ-specific antibody conjugated with HRP (Jackson ImmunoResearch Laboratories, Inc., West Grove, USA) followed by measurement of HRP activity in a standard colorimetric assay. Signals for target protein were calculated in fold increase above median.

transthyrethin = transthyrethin (UniProt P02766 21-147); assay: indirect ELISA, coated protein
Protocol: as §4

[13] = target: T10, transactive response DNA binding protein 43 (UniProt Q13148 1-414, limits assumed); assay: indirect ELISA, coated protein
T10 construct: also called TDP-43
T10 sequence (Q13148 whole entry): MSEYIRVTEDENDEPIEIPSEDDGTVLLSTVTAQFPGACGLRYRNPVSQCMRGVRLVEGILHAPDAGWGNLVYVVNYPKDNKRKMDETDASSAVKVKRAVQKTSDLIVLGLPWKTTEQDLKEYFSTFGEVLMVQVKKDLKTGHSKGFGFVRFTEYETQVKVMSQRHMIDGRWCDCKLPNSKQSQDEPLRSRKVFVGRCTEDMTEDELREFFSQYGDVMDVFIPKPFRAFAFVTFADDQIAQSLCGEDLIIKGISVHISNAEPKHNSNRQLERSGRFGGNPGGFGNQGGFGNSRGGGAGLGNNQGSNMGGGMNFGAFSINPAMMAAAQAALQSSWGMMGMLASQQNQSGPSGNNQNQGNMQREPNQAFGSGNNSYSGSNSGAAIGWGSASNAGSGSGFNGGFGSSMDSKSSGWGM
Protocol: as §4

[14] = target: T11, full-length amyloid precursor protein (UniProt P05067 18-770, limits assumed); assay: indirect ELISA, coated protein
T11 construct: also called flAPP
T11 sequence (P05067 18-770 limits assumed): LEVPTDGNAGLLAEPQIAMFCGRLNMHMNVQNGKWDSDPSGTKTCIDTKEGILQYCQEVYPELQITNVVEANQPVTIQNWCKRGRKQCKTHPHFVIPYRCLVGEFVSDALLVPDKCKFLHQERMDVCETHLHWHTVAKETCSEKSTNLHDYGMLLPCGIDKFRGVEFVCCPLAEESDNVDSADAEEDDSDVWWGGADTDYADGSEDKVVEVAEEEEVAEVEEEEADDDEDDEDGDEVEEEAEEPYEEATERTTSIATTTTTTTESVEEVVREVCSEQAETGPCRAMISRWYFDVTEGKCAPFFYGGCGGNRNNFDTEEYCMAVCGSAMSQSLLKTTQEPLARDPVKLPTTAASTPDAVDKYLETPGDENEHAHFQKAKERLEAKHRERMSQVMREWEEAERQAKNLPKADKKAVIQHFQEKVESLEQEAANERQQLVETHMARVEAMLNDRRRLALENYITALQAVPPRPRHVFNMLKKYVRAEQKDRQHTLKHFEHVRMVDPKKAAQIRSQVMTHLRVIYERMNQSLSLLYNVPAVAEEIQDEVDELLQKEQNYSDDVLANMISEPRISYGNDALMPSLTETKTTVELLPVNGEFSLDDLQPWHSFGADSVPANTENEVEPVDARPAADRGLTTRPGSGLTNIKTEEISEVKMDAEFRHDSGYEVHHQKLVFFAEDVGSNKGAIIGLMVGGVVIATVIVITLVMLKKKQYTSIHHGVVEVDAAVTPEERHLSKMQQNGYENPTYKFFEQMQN
Protocol: as §4

B1: NI-308.12A3 (antibody, V domains shown)
VH: EVQLVETGGGLVQPGGSLRLSCVGSGFLFSDFEMDWVRQAPGKGLEWISYISGDGNIIYQTDSVKGRFTISRDNAKNSLFLQMDSLTVEDTAVYYCARDARENCGGDCYSTSFDFWGQGTLVTVSS
VL: DIQMTQSPDSLAVSLGERATINCKSSQSLLYTANNRNYLAWYQKKAGQPPKLLIHWASTRASGVPDRFSGSGSGTDFILTISSLQAEDVAVYFCQHYYNSPRTFGQGTKVEIK
notes: Recombinant complete human IgG1, kappa
[1]
  EC50: 0.019 µM
[2]
  binding result: no binding
[3]
  binding result: no binding
[4]
  binding result: no binding
[5]
  EC50: 0.0061 µM
(PA)15: H-C(PA)15-OH
  binding result: no binding
(GR)15: H-C(GR)15-OH [6]
  binding result: no binding
(PR)15: H-C(PR)15-OH
  binding result: no binding
(GP)15: H-C(GP)15-OH [7]
  EC50: 0.0022 µM

B2: NI-308.46F8 (antibody, V domains shown)
VH: QVQLVESGGGVVRPGGSLRLSCTASGFTFDEYGMSWVRQVPGKGLEWVSGINWNGATTRYADSVKGRFTISRDNAKNSLYLQMNSLRAEDTALYHCARDGCRNTSCYIWDWFDPWGQGTLVTVSS
VL: CQSVLTQPPSVSAAPGQKVTISCSGSSSNIGNNYVCWYQNLPGTAPKLLIYDDNKRPSGIPDRFSGSKSGTSATLGITGLQTGDEADYYCGTWDSSLSVVVFGGGTKLTVL
[8]
  binding result: no binding (tested: 10 nM or 100 nM)
[9]
  binding result: no binding (tested: 10 nM or 100 nM)
(GR)15: H-C(GR)15-OH [10]
  EC50: 0.0406 µM
(GR)15: H-C(GR)15-OH [11]
  EC50: 0.0903 µM
(PA)15: H-C(PA)15-OH
  binding result: no binding
(GP)15: H-C(GP)15-OH [12]
  binding result: no binding
Tau
  binding result: no binding (tested: 20 nM)
transthyrethin
  binding result: no binding (tested: 20 nM)
[13]
  binding result: no binding (tested: 20 nM)
[14]
  binding result: no binding (tested: 20 nM)
